Results taken from the supplement of paper PMC9112550, “Optimization of the antimicrobial peptide Bac7 by deep mutational scanning” (BMC Biology, 2022).

System: Escherichia coli TOP10
Assay: shrunken log2 fold change of peptide-encoding DNA abundance (4.5 h post-induction vs induction); higher = less antimicrobial activity (less host growth inhibition)
Settings: time post-induction: 4.5 h; library: site-saturation at positions 5, 18, 19, 20
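Note: peptides expressed intracellularly from a pBAD plasmid library in pooled LB shake-flask culture, induced with 0.3% L-arabinose, DNA abundance read by NGS, three biological replicates, DESeq2 with apeglm shrinkage.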

Sequence: RRIRCRPPRLPRPRPRPLYDPRP
- shrunken log2 fold change: -0.312

Sequence: RRIRKRPPRLPRPRPRPLVVPRP
- shrunken log2 fold change: -0.0832

Sequence: RRIRWRPPRLPRPRPRPGMLPRP
- shrunken log2 fold change: -0.11

Sequence: RRIRNRPPRLPRPRPRPWMTPRP
- shrunken log2 fold change: -0.189

Sequence: RRIRKRPPRLPRPRPRPSFGPRP
- shrunken log2 fold change: -0.324

Sequence: RRIRNRPPRLPRPRPRPKWTPRP
- shrunken log2 fold change: -0.0342

Sequence: RRIRCRPPRLPRPRPRPDHIPRP
- shrunken log2 fold change: -0.489

Sequence: RRIRKRPPRLPRPRPRPDDSPRP
- shrunken log2 fold change: -0.0813

Sequence: RRIRQRPPRLPRPRPRPFHDPRP
- shrunken log2 fold change: -0.336

Sequence: RRIRNRPPRLPRPRPRPIVRPRP
- shrunken log2 fold change: 0.0133

Sequence: RRIRHRPPRLPRPRPRPMTAPRP
- shrunken log2 fold change: -0.135

Sequence: RRIRSRPPRLPRPRPRPNHEPRP
- shrunken log2 fold change: -0.175

Sequence: RRIRGRPPRLPRPRPRPSSYPRP
- shrunken log2 fold change: -0.128

Sequence: RRIRMRPPRLPRPRPRPAYLPRP
- shrunken log2 fold change: 0.0142

Sequence: RRIRARPPRLPRPRPRPPHGPRP
- shrunken log2 fold change: 0.788

Sequence: RRIRCRPPRLPRPRPRPGESPRP
- shrunken log2 fold change: 0.107

Sequence: RRIRMRPPRLPRPRPRPNRRPRP
- shrunken log2 fold change: 0.179

Sequence: RRIRNRPPRLPRPRPRPPLFPRP
- shrunken log2 fold change: 0.00419

Sequence: RRIRIRPPRLPRPRPRPNMVPRP
- shrunken log2 fold change: -0.383

Sequence: RRIRARPPRLPRPRPRPHDWPRP
- shrunken log2 fold change: 0.295

Sequence: RRIRIRPPRLPRPRPRPRIWPRP
- shrunken log2 fold change: 0.063

Sequence: RRIRHRPPRLPRPRPRPWASPRP
- shrunken log2 fold change: -0.0831

Sequence: RRIRSRPPRLPRPRPRPDIQPRP
- shrunken log2 fold change: -0.274

Sequence: RRIRARPPRLPRPRPRPCQGPRP
- shrunken log2 fold change: -0.11

Sequence: RRIRFRPPRLPRPRPRPMWIPRP
- shrunken log2 fold change: -0.106

Sequence: RRIRHRPPRLPRPRPRPDFCPRP
- shrunken log2 fold change: -0.0801

Sequence: RRIRARPPRLPRPRPRPIQTPRP
- shrunken log2 fold change: -0.0208

Sequence: RRIRRRPPRLPRPRPRPVGDPRP
- shrunken log2 fold change: -0.0486

Sequence: RRIRMRPPRLPRPRPRPVGVPRP
- shrunken log2 fold change: 0.806

Sequence: RRIRTRPPRLPRPRPRPTEPPRP
- shrunken log2 fold change: 0.045

Sequence: RRIRIRPPRLPRPRPRPPLIPRP
- shrunken log2 fold change: -0.512

Sequence: RRIRERPPRLPRPRPRPNVYPRP
- shrunken log2 fold change: -0.439

Sequence: RRIRYRPPRLPRPRPRPCNMPRP
- shrunken log2 fold change: -0.873

Sequence: RRIRLRPPRLPRPRPRPENDPRP
- shrunken log2 fold change: -0.336

Sequence: RRIRVRPPRLPRPRPRPYDIPRP
- shrunken log2 fold change: -0.279

Sequence: RRIRVRPPRLPRPRPRPGPYPRP
- shrunken log2 fold change: -0.0621

Sequence: RRIRVRPPRLPRPRPRPLAGPRP
- shrunken log2 fold change: 0.334

Sequence: RRIRSRPPRLPRPRPRPHPGPRP
- shrunken log2 fold change: 0.00228

Sequence: RRIRVRPPRLPRPRPRPQWSPRP
- shrunken log2 fold change: -0.201

Sequence: RRIRKRPPRLPRPRPRPMQYPRP
- shrunken log2 fold change: -0.0135

Sequence: RRIRFRPPRLPRPRPRPAYSPRP
- shrunken log2 fold change: 0.00204

Sequence: RRIRNRPPRLPRPRPRPWGDPRP
- shrunken log2 fold change: -0.0233

Sequence: RRIRIRPPRLPRPRPRPEQYPRP
- shrunken log2 fold change: -0.0765

Sequence: RRIRRRPPRLPRPRPRPRPEPRP
- shrunken log2 fold change: 0.343

Sequence: RRIRCRPPRLPRPRPRPMTTPRP
- shrunken log2 fold change: 0.151

Sequence: RRIRRRPPRLPRPRPRPCWTPRP
- shrunken log2 fold change: -0.13

Sequence: RRIRGRPPRLPRPRPRPGSFPRP
- shrunken log2 fold change: 0.286

Sequence: RRIRHRPPRLPRPRPRPHESPRP
- shrunken log2 fold change: -0.0218

Sequence: RRIRLRPPRLPRPRPRPKHYPRP
- shrunken log2 fold change: -0.406

Sequence: RRIRLRPPRLPRPRPRPSAEPRP
- shrunken log2 fold change: 0.342

Sequence: RRIRCRPPRLPRPRPRPIYEPRP
- shrunken log2 fold change: -0.576

Sequence: RRIRDRPPRLPRPRPRPPRKPRP
- shrunken log2 fold change: 0.758

Sequence: RRIRGRPPRLPRPRPRPRPMPRP
- shrunken log2 fold change: 1.51

Sequence: RRIRQRPPRLPRPRPRPWVDPRP
- shrunken log2 fold change: 0.0234

Sequence: RRIRSRPPRLPRPRPRPLVPPRP
- shrunken log2 fold change: -0.0319

Sequence: RRIRYRPPRLPRPRPRPIGFPRP
- shrunken log2 fold change: 0.0062

Sequence: RRIRFRPPRLPRPRPRPPTYPRP
- shrunken log2 fold change: -0.0496

Sequence: RRIRYRPPRLPRPRPRPGSYPRP
- shrunken log2 fold change: -0.349

Sequence: RRIRLRPPRLPRPRPRPCHGPRP
- shrunken log2 fold change: -0.0309

Sequence: RRIRRRPPRLPRPRPRPSKDPRP
- shrunken log2 fold change: 0.0136
